{"source": "patent US20110287036A1", "about": "“NOVEL CANCER TARGETING THERAPY USING COMPLEX OF SUBTANCE CAPABLE OF BINDING SPECIFICALLY TO CONSTITUENT FACTOR OF CANCER STROMA AND ANTI-TUMOR COMPOUND” (RIKEN, priority 2008, published 2011)", "system": "PSN1 or SUIT2", "assay": "In vivo imaging of IRDye800-labeled antibodies in tumor-bearing mice", "set-up": "species or system BALB/c nude mouse", "details": "imaged 1, 3, 7 and 14 days after administration", "experimental": "PSN1 or SUIT2 was transplanted to the back of each BALB/c nude mouse (female, 6-week-old); 10 days after the transplantation, each antibody (labeled with IRDye800 (Li-Cor)) was administered from a tail vein of the mouse. 1 day, 3 days, 7 days, and 14 days after the administration, the antibody distribution was analyzed using the in vivo imaging apparatus OV110 (Olympus).\nIn the figure, CD20 stands for the antihuman CD20 antibody, EpCAM for the antihuman EpCAM antibody, and Col. 4 for the antimouse type IV collagen antibody.", "data": [{"substance": "antihuman CD20 antibody: monoclonal antibody against human B cells, does not react with SUIT2; control", "values": [{"measurement": "accumulation in tumor tissue", "setting": "IRDye800-labeled antibody via tail vein 10 days after transplantation", "result": "accumulated selectively in tumor tissue due to an EPR effect"}, {"measurement": "duration of stay in / disappearance from tumor tissue", "setting": "IRDye800-labeled antibody via tail vein", "result": "disappeared from the tumor tissue earlier than the antimouse type IV collagen antibody"}]}]}
